{
  "source": "paper doi:10.1101/282715",
  "about": "(bioRxiv, 2018)",
  "target": "the molecule itself",
  "test": "cryo-EM structure",
  "data": [
    {"protein": "mouse TRPC4 (residues a.a. 1-758, excluding a.a. 759-974) (natural protein, UniProt Q9QUQ5 1-758, looked up) MAQFYYKRNVNAPYRDRIPLRIVRAESELSPSEKAYLNAVEKGDYASVKKSLEEAEIYFKININCIDPLGRTALLIAIENENLELIELLLSFNVYVGDALLHAIRKEVVGAVELLLNHKKPSGEKQVPPILLDKQFSEFTPDITPIILAAHTNNYEIIKLLVQKGVSVPRPHEVRCNCVECVSSSDVDSLRHSRSRLNIYKALASPSLIALSSEDPFLTAFQLSWELQELSKVENEFKSEYEELSRQCKQFAKDLLDQTRSSRELEIILNYRDDNSLIEEQSGNDLARLKLAIKYRQKEFVAQPNCQQLLASRWYDEFPGWRRRHWAVKMVTCFIIGLLFPVFSVCYLIAPKSPLGLFIRKPFIKFICHTASYLTFLFLLLLASQHIDRSDLNRQGPPPTIVEWMILPWVLGFIWGEIKQMWDGGLQDYIHDWWNLMDFVMNSLYLATISLKIVAFVKYSALNPRESWDMWHPTLVAEALFAIANIFSSLRLISLFTANSHLGPLQISLGRMLLDILKFLFIYCLVLLAFANGLNQLYFYYEETKGLSCKGIRCEKQNNAFSTLFETLQSLFWSIFGLINLYVTNVKAQHEFTEFVGATMFGTYNVISLVVLLNMLIAMMNNSYQLIADHADIEWKFARTKLWMSYFEEGGTLPTPFNVIPSPKSLWYLVKWIWTHLCKKKMRRKPESFGTIGRRAADNLRRHHQYQEVMRNLVKRYVAAMIREAKTEEGLTEENVKELKQDISSFRFEVLGLLRGSK", "values": [
      {"measurement": "stoichiometry N", "result": 4}
    ]}
  ]
}
